{"source": "patent US20210317419", "molecular_target": "T1, D-proline reductase PrdA protein derived from Peptoclostridium difficile 630, with 6X histidine tags at both termini (H6-prdA-H6)", "T1 chain": "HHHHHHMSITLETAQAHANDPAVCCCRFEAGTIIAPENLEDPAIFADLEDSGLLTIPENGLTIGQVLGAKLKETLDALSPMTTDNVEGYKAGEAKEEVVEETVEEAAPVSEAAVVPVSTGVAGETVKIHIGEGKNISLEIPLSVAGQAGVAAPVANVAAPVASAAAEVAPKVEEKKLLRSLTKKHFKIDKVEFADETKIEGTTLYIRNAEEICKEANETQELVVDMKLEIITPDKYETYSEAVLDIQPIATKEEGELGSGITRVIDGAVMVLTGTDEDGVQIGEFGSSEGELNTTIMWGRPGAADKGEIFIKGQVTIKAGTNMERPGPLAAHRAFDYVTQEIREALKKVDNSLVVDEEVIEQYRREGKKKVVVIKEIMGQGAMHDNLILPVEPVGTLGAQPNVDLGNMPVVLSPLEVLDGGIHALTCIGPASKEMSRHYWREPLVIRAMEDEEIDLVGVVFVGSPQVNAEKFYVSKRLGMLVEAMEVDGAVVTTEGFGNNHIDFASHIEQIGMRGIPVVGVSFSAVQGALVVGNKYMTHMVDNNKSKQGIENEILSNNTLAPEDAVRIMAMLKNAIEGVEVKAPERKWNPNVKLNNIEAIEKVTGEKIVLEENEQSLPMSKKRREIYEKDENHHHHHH", "data": [{"protein": "D-proline reductase PrdB protein derived from Peptoclostridium difficile 630, with a 6X histidine tag at the carboxyl terminus (prdB-H6) (protein) MSLTTVQGLQSEIFVPITPPPVWTPVTKELKDMTIALATAAGVHLKSDKRFNLAGDTTFRAIPNTATVDEMMVSHGGYDNGDVNKDINCMFPIDRLHELAAEGFIKGVAPMHYAFMGGGGNQHVFTEETGPAIAAKLKEEGVDGVVMTAGGTCHRTAVIVQRAIEEAGIPTIIIAALPPVVRQNGTPRAVAPLVPMGANAGEPHNIEMQTHILRDTLEQLVAIPSAGKIVPLPYEYKAHVHHHHHH", "values": [{"measurement": "self-cleavage of PrdA protein (Western blot of lysates of co-expressing E. coli)", "value": "PrdH protein and PrdB protein must exist at the same time to induce self-cleavage of PrdA protein"}]}]}
